Measured values as given in PMC8969299 (Chemical Engineering Journal, 2022).

Molecular target: SARS-CoV-2 (2019-nCoV) spike (S) protein RBD-His recombinant protein (SARS-CoV-2, UniProt P0DTC2)
Test: FRET or BRET

IEEQAKTFLDKFNHEAEDLFYQSSLASWK [hACE2 mimic peptide beacon (COVID19-PEB)]: binds.
